# T1: Tau409-426 pS422 peptide (human)
# T1 chain: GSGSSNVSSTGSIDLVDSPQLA
# T2: Tau409-426 pS416 pS422 peptide (human)
# T2 chain: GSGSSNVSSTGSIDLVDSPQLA
# T3: tau peptide 413-430 (human, phosphorylation not given)
# T3 chain: STGSIDMVDSPQLATLAD
# T4: Tau409-426 6-phospho peptide (human, not fully specified)
# T4 chain: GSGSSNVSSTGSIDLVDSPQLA
# Tests used:
# iPHF [1] = target: T5, iPHF (human, UniProt P10636); experiment: BLI
# iPHF [2] = target: T5, iPHF; experiment: SPR, KD1
# iPHF [3] = target: T5, iPHF; experiment: SPR, KD2
# Tau409-426 pS422 peptide = target: T1, Tau409-426 pS422 peptide; experiment: ELISA
# [4] = target: T2, Tau409-426 pS416 pS422 peptide; experiment: ELISA
# tau peptide 413-430 = target: T3, tau peptide 413-430
# [5] = target: T4, Tau409-426 6-phospho peptide; experiment: ELISA
# T5 sequence (P10636 2-758): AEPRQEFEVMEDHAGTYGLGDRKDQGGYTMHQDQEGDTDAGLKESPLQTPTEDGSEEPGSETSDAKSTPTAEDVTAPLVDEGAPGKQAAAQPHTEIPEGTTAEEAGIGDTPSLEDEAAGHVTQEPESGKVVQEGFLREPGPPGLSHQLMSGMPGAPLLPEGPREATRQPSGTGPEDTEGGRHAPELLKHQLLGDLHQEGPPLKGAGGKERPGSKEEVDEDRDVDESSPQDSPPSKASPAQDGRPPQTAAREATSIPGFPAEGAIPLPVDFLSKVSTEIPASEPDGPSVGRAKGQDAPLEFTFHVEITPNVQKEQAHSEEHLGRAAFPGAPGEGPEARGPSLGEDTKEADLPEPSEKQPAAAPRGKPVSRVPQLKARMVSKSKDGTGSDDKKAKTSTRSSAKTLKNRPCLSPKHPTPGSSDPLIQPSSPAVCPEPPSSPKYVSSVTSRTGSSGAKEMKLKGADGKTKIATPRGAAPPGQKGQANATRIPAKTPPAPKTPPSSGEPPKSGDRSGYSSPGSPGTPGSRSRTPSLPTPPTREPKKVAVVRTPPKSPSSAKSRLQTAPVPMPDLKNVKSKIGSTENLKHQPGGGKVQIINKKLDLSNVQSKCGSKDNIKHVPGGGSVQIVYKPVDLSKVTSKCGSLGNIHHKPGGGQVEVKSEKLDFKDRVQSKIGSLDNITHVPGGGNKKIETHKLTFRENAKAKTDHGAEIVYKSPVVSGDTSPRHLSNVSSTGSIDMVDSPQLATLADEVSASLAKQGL
Binder,Kd (iPHF [1]),Kd (iPHF [2]),Kd (iPHF [3]),EC50 (Tau409-426 pS422 peptide),EC50 [4],Kd (tau peptide 413-430),EC50 [5]
"V0024 (antibody, V domains shown) VH: QVQLQQPGTELVKPGASVKLSCKASGYTFTRFWMHWVKQRPGQGLEWIGNINPNNGGTDNNERFKSKATLTVDRSSSTAYMQLSSLTSEDSAVYYCARGTGTGAMDYWGQGTSVTVSS VL: DVVMTQTPLSLPVSLGDQASISCRSSQSLVHSNGNTHLYWYLQKPGQSPKLLIYRVSSRFSGVPDRFSGSGSGTDFTLKISRVEAEDLGVYFCFQGTHVPRTFGGGTKLEIK",–,–,–,0.233 nM,0.22 nM,0.225 nM,0.222 nM
"V0022 (antibody, V domains shown) VH: QVQLQQPGTELVKPGSSVNLSCKASGFTFTRYWMHWVKERPGHGLEWIGNINPNNGGTDFNEKFKNKATLTVHKSSTTVFIQLSSLTSEDSAVYYCARGTGTGAMDYWGQGTSVTVSS VL: DVVMTQTPLSLPVSLGDQASISCRSSQSLVHNNGITYLYWYLQKPGQSPKLLIYRVSNRFSGVPDRFGGSGSGTDFTLKISRVEAEDLGVYFCFQGTHVPRTFGGGTKLEIK",–,–,–,0.288 nM,0.283 nM,0.306 nM,0.302 nM

# Continued, values first:
Kd (iPHF [1]),Kd (iPHF [2]),Kd (iPHF [3]),EC50 (Tau409-426 pS422 peptide),EC50 [4],Kd (tau peptide 413-430),EC50 [5],Binder
0.6 nM,4.46 nM,2.64 nM,–,–,–,–,"V0052 (antibody, V domains shown, immunopurified paired helical filament tau, hyperphosphorylated) VH: not shown VL: SIVMTQTPKFLLVSAGDRVTITCKASQSVSNDVAWYQQKPGQSPKLLIYYASNRCTGVPDRFTGSGYGTDFTFTISTVQAEDLAVYFCQQDYRSPLTFGAGTKLELK"
–,–,–,0.234 nM,0.252 nM,0.207 nM,0.217 nM,"V0023 (antibody, V domains shown) VH: QVQLQQPGTELVKPGASVKLSCKASGYTFTIFWMHWVKQRPGHGLEWIGKINPNNGGGDYNEKFKSKATLTVDKSSTTAYLQLSSLTSEDSAVYYCARGTGTGAMDYWGQGTSVTVSS VL: DVVMTQTPLSLPVSLGDHASISCRSSQSLVHSNGITHLYWYLQRPGQTPKLLIYRVSNRFSGVPDRFSGSGSGTDFTLKISSVEAEDLGVYFCFQGTHVPRTFGGGTKLEIE"

# Reference: patent US20260356924 (published 2026)
